# Entries after “also recorded” stand apart in the source; their conditions may differ.
# How the values were obtained:
# LNCaP = assay: Cancer cell proliferation, tritiated thymidine incorporation; format: cell-based, human; conditions: LNCaP cultured in vitro
# From the text: (§1) TDFRP Compound Inhibition of LNCaP Cancer Cell Proliferation. BMP-6 and a TDFRP compound (SEQ ID NO:45) inhibited the proliferation of prostate cancer cells (LNCaP and PC-3) cultured in vitro as detected by the incorporation of tritiated thymidine (a measure of cell proliferation.
# (§2) Prostate cancer is one of the most common cancers in men. […] Moreover, it has been shown that BMP signals inhibit the growth and the proliferation of human prostate tumor cells by upregulating the cyclin-dependent kinase inhibitor (CDKI) p21 (CIP1/WAF1) and decreasing the activity of Cdk2, leading to hypophosphorylation of Rb proteins. TDFRP compounds have been screened in in vitro prostate and bladder cancer bioassays to assess growth inhibitory activity of the compounds (FIG. 3). ^3H-thymidine incorporation is used as a marker for cell proliferation activity in human prostate and bladder cancer cell lines. Cisplatin inhibits ^3H-thymidine incorporation, indicating a tumor-growth suppressive activity of cisplatin in both human prostate and bladder cancer cells. TDFRP compounds are assayed in these cancer cells for the ability to induce receptor-regulated Smad 1/5 phosphorylation in a dose-dependent manner (FIG.).
# as §2, with “(FIGS. 3, 28).” for “(FIG. 3).”, “(FIGS. 3, 28).” for “(FIG.).”
# PC-3 = assay: as above; format: cell-based, human; conditions: PC-3 cultured in vitro
# From the text: as §1, §2
# as §2, with “(FIGS. 3, 28).” for “(FIG. 3).”, “(FIGS. 3, 28).” for “(FIG.).”
# [1] = tested on: LNCaP human prostate cancer cells; assay: Smad phosphorylation in LNCaP prostate cancer cells (Western blot); format: cell-based; conditions: single agent, cultured LNCaP cells
# Method: The detection of Smad phosphorylation by Western analysis, for example in LNCaP (prostate cancer cells) or EC (vascular endothelial cells) in culture medium can be examined after exposure to varying concentrations of TDFRP or control compounds. BMP-7 serves as a positive control. Cells are lysed in RIPA lysis buffer (50 mM Tris-HCl at pH 8.0, 150 mM NaCl, 1% NP-40, 0.5% sodium deoxycholate, 0.1% SDS) containing 1 mM PMSF, 1 mM sodium orthovanadate, and 10 ug/mL proteinase inhibitor cocktail. Lysates are incubated on ice for 15 minutes, centrifuged, and transferred supernatant to a clean tube. 50 to 100 ug is used for analysis by SDS-PAGE. Resolved proteins are electro transferred onto PVDF membrane. The blot is blocked by incubating in 3% non-fat dry milk prepared in PBS at room temperature for 1 hour with constant slow agitation. The blot is incubated with 1-2 ug/mL of primary antibody (rabbit anti-phospho-Smad 1) prepared in PBS-milk, overnight with agitation at 4 degree C., washed twice with PBS, and incubated with secondary antibody (anti rabbit HRP conjugated IgG, 1:3000 dilution) at room temperature for 2 hours with agitation. After washing in PBS-0.05% Tween 20 for 5 minutes and rinsing, Smad phosphorylation is detected via an HRP reaction according to manufacturer's instructions (FIGS. 2, 3, 18, 2X).
# For detection of Smad phosphorylation by Western analysis, LNCaP (prostate cancer cells) or EC (vascular endothelial cells) in culture medium are exposed to varying concentrations of TDFRP or control compounds. BMP-7 served as a positive control. Cells are lysed in RIPA lysis buffer (50 mM Tris-HCl at pH 8.0, 150 mM NaCl, 1% NP-40, 0.5% sodium deoxycholate, 0.1% SDS) containing 1 mM PMSF, 1 mM sodium orthovanadate, and 10 ug/mL proteinase inhibitor cocktail. Lysates are incubated on ice for 15 minutes, centrifuged, and transferred supernatant to a clean tube. 50 to 100 ug is used for analysis by
# SDS-PAGE. Resolved proteins are electro transferred onto PVDF membrane. The blot is blocked by incubating in 3% non-fat dry milk prepared in PBS at room temperature for 1 hour with constant slow agitation. The blot is incubated with 1-2 ug/mL of primary antibody (rabbit anti-phospho-Smad 1) prepared in PBS-milk, overnight with agitation at 4 degree C., washed twice with PBS, and incubated with secondary antibody (anti rabbit HRP conjugated IgG, 1:3000 dilution) at room temperature for 2 hours with agitation. After washing in PBS-0.05% Tween 20 for 5 minutes and rinsing, Smad phosphorylation is detected via an HRP reaction according to manufacturer's instructions (FIGS. 3, 27).
# BMP signaling molecules co-administered with TDFRP compounds show synergistic or enhanced downstream signaling as detected by Smad phosphorylation. Smad phosphorylation was assessed by Western analysis in LNCaP (prostate cancer cells) or EC (vascular endothelial cells) cells in culture medium exposed to varying concentrations of TDFRP or control compounds. BMP-7 served as a positive control. Cells are lysed in RIPA lysis buffer (50 mM Tris-HCl at pH 8.0, 150 mM NaCl, 1% NP-40, 0.5% sodium deoxycholate, 0.1% SDS) containing 1 mM PMSF, 1 mM sodium orthovanadate, and 10 ug/mL proteinase inhibitor cocktail. Lysates are incubated on ice for 15 minutes, centrifuged, and transferred supernatant to a clean tube. 50 to 100 ug is used for analysis by SDS-PAGE. Resolved proteins are electro transferred onto PVDF membrane. […]
molecule,measurement,setting,value
"BMP-6: bone morphogenetic protein BMP-6 (Vgr-1) (protein, UniProt P22004 375-513, looked up) Bone morphogenetic protein 6: SASSRRRQQSRNRSTQSQDVARVSSASDYNSSELKTACRKHELYVSFQDLGWQDWIIAPKGYAANYCDGECSFPLNAHMNATNHAIVQTLVHLMNPEYVPKPCCAPTKLNAISVLYFDDNSNVILKKYRNMVVRACGCH",proliferation (incorporation of tritiated thymidine),LNCaP,inhibited
same,proliferation (incorporation of tritiated thymidine),PC-3,inhibited
same,Smad phosphorylation and activation,[1],"induced; also recorded: Smad 1, 5, 8 phosphorylation and activation"

# — patent publication US8911953B2, “TDF-related compounds and analogs thereof, analogs and bioactive fragments” (Thrasos Innovation, Inc., priority 2005, dated 2014)
